Reference: patent publication US20210395310A1, “Cyclic Peptide” (The University of Tokyo, priority 2018, published 2021)
Each block holds one molecule with its values, some of them ahead of it. Positions of bridges follow the written chain, without caps; N, C: chain ends. Non-standard residues stand in square brackets, D forms with d. Primed or numbered codes have the meaning given here. No end group written: not given here. PEG11′ = PEG11 linker (11-unit polyethylene glycol spacer); PEG5′ = not defined here; PEG11″ = PEG11 linker; βAla = NCCC(=O)O

Tests used:
HGF [1] = target: T1, HGF (Homo sapiens, UniProt P14210); assay: Binding of cyclic peptides to immobilized HGF by SPR (Biacore T200); details: immobilized biotinylated HGF, single cycle kinetics; for kon: read-out: Ka (association rate); for koff: read-out: Kd (dissociation rate)
T1 construct: the full-length human HGF cDNA was cloned into pEHX1.1 plasmid; made in house; host or cells: Chinese hamster ovary (CHO) cells
Experimental: (§1) Binding of the cyclic peptides to immobilized HGF was measured using surface plasmon resonance (SPR) with Biacore T200 (product of GE Healthcare). Specifically, 2000 resonance units (RU) of biotinylated HGF was immobilized onto a CAP sensor chip by using a biotin capture kit (product of GE Healthcare).
(§2) Binding of the cyclic peptides was tested by injecting varying concentrations of the cyclic peptides into an HBS EP+buffer (10 mM HEPES (pH 7.4), 150 mM NaCl, 3 mM EDTA, and 0.05% (v/v) Surfactant P20) containing 0.1% DMSO at a flow rate of 30 μl/min. Binding of the cyclic peptides to HGF was analyzed by single cycle kinetics analysis.

PC-9 cells = assay: Gefitinib resistance test; type: cell-based, human; parameters: growth of lung cancer cells: dose or concentration left out as unconfirmed
Experimental: The resistance to gefitinib, an anticancer agent, was tested by seeding human lung cancer cells, PC-9 cells, on a 24-well plate and cultured for 24 hours on a RPMI medium containing 10% fetal bovine serum. The number of living cells was counted after non-addition or addition of gefitinib ([…]), HGF (20 ng/mL), or HiP8-PEG11 (1-1000 nM) and culturing for 72 hours.

HGF [2] = target: T1, HGF; assay: MET activation test: inhibition of HGF-induced MET activation in EHMES-1 cells; type: cell-based; details: at a concentration of 100 nM or more
Experimental: EHMES-1 Cells were stimulated for 10 minutes while using a medium with 20 ng/ml ([…]) of an hHGF protein in the presence or absence of a cyclic peptide and washed with phosphate-buffered physiological saline (PBS). Then, 4% paraformaldehyde (PFA) was added in PBS and the resulting mixture was incubated for 30 minutes, followed by further washing three times with PBS. The cells were […] for 30 minutes with 5% goat serum and 0.02% Triton X-100 in PBS and then, incubated at 4° C. for 12 hours in Phospho-Met (Tyr1234/1235) XP rabbit mAb (D26, product of Cell Signaling Technology, Danvers, Commonwealth of Massachusetts), a monoclonal antibody. As the monoclonal antibody, used was that diluted at 1:1000 in a 1% goat serum PBS suspension. The cells were washed three times with PBS and incubated for 1 hour in a liquid obtained by diluting an HRP-conjugated anti-rabbit antibody and a 1% goat serum PBS suspension at 1:1000. […] By using a chemiluminescence method with ImmunoStar (registered trademark) LD reagent (product of Wako Pure Chemicals, Japan), chemiluminescence intensity was measured by ARVO MX (product of Perkin Elmer). Relative MET phosphorylation was calculated as the following: (chemiluminescence unit of sample—chemiluminescence unit of mock control)/(chemiluminescence unit of […]—chemiluminescence unit of mock control). […]
Target sequence in this assay (P14210 32-489 isoform P14210-3): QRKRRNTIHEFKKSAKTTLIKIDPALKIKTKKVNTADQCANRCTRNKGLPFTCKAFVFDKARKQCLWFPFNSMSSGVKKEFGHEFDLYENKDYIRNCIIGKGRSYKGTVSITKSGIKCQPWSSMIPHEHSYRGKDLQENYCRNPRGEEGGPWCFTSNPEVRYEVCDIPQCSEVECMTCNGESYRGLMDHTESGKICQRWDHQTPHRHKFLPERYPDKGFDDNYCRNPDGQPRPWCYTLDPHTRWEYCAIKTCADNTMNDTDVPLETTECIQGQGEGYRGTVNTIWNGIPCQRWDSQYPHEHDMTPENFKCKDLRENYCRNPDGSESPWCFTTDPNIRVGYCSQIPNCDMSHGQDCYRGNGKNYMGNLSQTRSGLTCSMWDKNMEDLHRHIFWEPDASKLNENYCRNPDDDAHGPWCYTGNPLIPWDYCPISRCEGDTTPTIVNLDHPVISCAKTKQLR
Target sequence in this assay (P14210 495-728): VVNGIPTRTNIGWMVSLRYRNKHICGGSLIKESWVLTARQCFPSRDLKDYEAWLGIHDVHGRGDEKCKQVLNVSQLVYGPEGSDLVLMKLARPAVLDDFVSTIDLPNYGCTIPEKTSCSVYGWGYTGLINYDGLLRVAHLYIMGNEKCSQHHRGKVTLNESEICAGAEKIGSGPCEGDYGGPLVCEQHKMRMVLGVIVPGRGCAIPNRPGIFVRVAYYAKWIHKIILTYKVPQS

MET = target: T2, MET (Homo sapiens, UniProt P08581); assay: MET activation assay using cells: MET activation by HGF in EHMES-1 cells; type: cell-based
T2 construct: endogenous in cells; host or cells: EHMES-1 cells
T2 sequence (P08581 25-1390): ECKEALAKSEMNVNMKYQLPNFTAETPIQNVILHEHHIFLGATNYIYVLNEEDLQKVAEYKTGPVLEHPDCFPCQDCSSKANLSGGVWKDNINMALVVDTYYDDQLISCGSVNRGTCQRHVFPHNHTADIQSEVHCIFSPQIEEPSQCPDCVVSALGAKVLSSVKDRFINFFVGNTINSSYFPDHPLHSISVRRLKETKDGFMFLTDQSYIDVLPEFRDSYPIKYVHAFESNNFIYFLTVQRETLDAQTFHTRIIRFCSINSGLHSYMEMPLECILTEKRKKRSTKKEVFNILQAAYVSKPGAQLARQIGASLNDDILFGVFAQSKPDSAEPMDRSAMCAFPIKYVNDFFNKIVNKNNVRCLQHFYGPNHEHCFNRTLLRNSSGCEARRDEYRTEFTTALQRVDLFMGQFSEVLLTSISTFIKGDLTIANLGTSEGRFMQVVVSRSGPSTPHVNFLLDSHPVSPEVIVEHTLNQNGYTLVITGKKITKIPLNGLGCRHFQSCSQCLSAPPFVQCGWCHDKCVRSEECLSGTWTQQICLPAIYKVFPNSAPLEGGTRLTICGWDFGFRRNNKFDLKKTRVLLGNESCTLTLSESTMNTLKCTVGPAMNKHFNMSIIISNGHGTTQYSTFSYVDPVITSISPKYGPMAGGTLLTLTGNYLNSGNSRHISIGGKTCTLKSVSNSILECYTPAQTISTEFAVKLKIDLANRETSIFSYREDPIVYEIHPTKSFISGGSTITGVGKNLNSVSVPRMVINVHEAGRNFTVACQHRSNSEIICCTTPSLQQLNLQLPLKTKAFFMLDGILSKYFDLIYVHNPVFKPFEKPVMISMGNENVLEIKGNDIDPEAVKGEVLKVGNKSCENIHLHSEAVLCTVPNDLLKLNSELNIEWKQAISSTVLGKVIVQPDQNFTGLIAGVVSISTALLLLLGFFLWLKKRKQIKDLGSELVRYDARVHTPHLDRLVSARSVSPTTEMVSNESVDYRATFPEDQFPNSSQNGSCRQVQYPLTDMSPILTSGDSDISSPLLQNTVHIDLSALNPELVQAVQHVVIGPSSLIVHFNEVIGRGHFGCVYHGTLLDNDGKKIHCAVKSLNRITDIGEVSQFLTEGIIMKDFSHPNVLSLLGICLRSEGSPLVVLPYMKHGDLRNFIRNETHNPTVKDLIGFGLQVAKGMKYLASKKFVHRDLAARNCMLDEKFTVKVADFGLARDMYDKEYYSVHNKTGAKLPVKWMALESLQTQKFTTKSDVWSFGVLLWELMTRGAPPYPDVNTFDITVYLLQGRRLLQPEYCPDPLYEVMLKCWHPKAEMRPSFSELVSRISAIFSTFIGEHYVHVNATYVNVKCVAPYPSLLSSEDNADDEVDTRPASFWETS
Experimental: In EHMES-1 cells, HGF activated MET at EC50=0.07 nM. The arrow in the graph indicates 0.22 nM HGF used for peptide assessment. […] The EC50 value was determined by using dose-response (variable gradient, 4 parameters) curve fitting of Prism 6.0d and plotting the logarithm of MET activation against an HGF concentration. Data thus obtained are expressed as mean±s.d. of three independent measurement results.
EHMES-1 Cells were stimulated for 10 minutes while using a medium with 20 ng/ml ([…]) of an hHGF protein in the presence or absence of a cyclic peptide and washed with phosphate-buffered physiological saline (PBS). Then, 4% paraformaldehyde (PFA) was added in PBS and the resulting mixture was incubated for 30 minutes, followed by further washing three times with PBS. […] By using a chemiluminescence method with ImmunoStar (registered trademark) LD reagent (product of Wako Pure Chemicals, Japan), chemiluminescence intensity was measured by ARVO MX (product of Perkin Elmer). Relative MET phosphorylation was calculated as the following: (chemiluminescence unit of sample—chemiluminescence unit of mock control)/(chemiluminescence unit of […]—chemiluminescence unit of mock control).

[3] = target: human hepatocyte growth factor (HGF), recombinant full-length, active two-chain form (human, UniProt P14210 32-728); assay: cell-based or functional assay
Chain of human hepatocyte growth factor (HGF), recombinant full-length, active two-chain form (P14210 other isoform, or with tags, fused parts or gaps limits assumed): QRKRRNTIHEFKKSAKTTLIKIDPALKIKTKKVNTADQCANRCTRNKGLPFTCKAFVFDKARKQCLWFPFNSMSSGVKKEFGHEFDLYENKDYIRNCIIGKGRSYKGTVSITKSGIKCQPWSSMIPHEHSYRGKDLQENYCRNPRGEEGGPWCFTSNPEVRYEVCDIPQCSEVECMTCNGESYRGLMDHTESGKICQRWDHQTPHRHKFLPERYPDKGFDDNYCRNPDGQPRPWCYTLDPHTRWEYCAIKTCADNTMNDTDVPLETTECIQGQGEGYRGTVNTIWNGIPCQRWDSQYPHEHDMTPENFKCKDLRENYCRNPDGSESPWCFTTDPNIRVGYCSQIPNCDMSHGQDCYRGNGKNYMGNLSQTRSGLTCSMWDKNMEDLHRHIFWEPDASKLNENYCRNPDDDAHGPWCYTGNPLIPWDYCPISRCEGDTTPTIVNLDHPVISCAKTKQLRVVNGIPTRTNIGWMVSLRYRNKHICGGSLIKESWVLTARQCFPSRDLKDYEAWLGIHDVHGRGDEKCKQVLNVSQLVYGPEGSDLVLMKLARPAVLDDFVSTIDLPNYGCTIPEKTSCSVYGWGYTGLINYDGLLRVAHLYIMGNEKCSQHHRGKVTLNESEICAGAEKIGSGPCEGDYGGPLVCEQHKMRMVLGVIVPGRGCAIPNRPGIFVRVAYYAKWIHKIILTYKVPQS

[4] = target: T3, biotinylated full-length human HGF (human, UniProt P14210 32-728, biotinylated with a succinimidyl biotin labeling kit (sites not given)); assay: SPR, Biacore T200, biotinylated HGF on CAP chip, peptide injected, single cycle kinetics
T3 construct: also called biotinylated HGF; biotinylated hHGF
T3 sequence (P14210 other isoform, or with tags, fused parts or gaps limits assumed): as above
Experimental: as §1, §2

fluorescein-HGF [5] = target: T4, fluorescein-HGF (human, UniProt P14210 32-728, labelled with a succinimidyl fluorescein labeling kit (sites not given)); assay: competition, flow cytometry: peptide varied against the binding of 0.44 nM fluorescein-HGF to MET-Fc beads [upper panel]
T4 construct: also called fluoresceinated HGF
T4 sequence (P14210 other isoform, or with tags, fused parts or gaps limits assumed): as above
Experimental: (§3) Labeling of hHGF with fluorescein was performed using a succinimidyl fluorescein labeling kit (product of Dojindo). On 200 μl (50% v/v) of protein G beads (Spherotech) in Tris-buffered physiological saline (pH 7.5) containing 0.1% BSA and […] of Tween-20, 5 μg of MET-extracellular domain-Fc fusion protein (product of R&D systems) was immobilized. […] The fluorescence intensity of the beads was detected using a flow cytometer (product of FACS Canto II, BD Biosciences).
(§4) For a competitive test of the cyclic peptide, for each of increased concentrations of the cyclic peptide, 0.44 nM fluorescein-HGF and MET-Fc immobilized beads were mixed, the resulting mixture was incubated at 25° C. for 1 hour, and fluorescence intensity of the beads was measured using a flow cytometer.

fluorescein-HGF [6] = target: T4, fluorescein-HGF; assay: competition, flow cytometry: peptide varied against the binding of 0.44 nM fluorescein-HGF to MET-Fc beads [lower panel]
Experimental: as §3, §4

fluorescein-HGF [7] = target: T4, fluorescein-HGF; assay: competition, flow cytometry: HiP-8 varied against the binding of 0.44 nM fluorescein-HGF to MET-Fc beads
Experimental: as §3, §4

tcHGF(Xa) = target: T5, tcHGF(Xa) (human, UniProt P14210 32-490; P14210 495-728); assay: SPR, Biacore 3000, HiP8-PEG11-biotin on streptavidin chip, tcHGF(Xa) injected, steady-state affinity
T5 construct: A C-terminal hexahistidine tag was added and the sample was treated with TEV protease; also called mature HGF (Xa)
T5 sequence (P14210 other isoform, or with tags, fused parts or gaps limits assumed, chain 1 of 2): as the sequence (P14210 32-489 isoform P14210-3) above, with K455I, Q456E, L457G counted along it
T5 sequence (P14210 495-728 limits assumed, chain 2 of 2): as the sequence (P14210 495-728) above
Experimental: A very limited portion of the scHGF(Xa) bound to HiP-8-PEG11. A binding rate was detected by surface plasmon resonance (SPR). RU represents a resonance unit (resonance unit). The upward arrow and the downward arrow mean start and end of HGF input, respectively. Data are expressed as mean±s.d. of typical sensorgrams performed in two iterations by using HGFs having a plurality of concentrations.
Binding of HGF and HGF fragments to immobilized HiP8-PEG11 was measured by surface plasmon resonance (SPR) with Biacore 3000 (product of Ge Flealthcare). Hip8-PEG11-biotin was supported on the surface of a streptavidin-coated chip at 10 RU (resonance unit). The test was performed by injecting HGF and HGF fragments with varying concentrations into 10 mM TBS (pH 7.4), 150 mM NaCl, and 0.05% Tween 20 (v/v) at a flow rate of 30 μl/min. Binding affinity was analyzed from a fitting model of steady-state affinity by multi-cycle kinetics analysis.

kon (HGF [1]): 700000 M⁻¹ s⁻¹ | koff (HGF [1]): 0.0079 s⁻¹
Molecule: CC[C@H](C)[C@@H]1NC(=O)[C@H](CCCNC(=N)N)NC(=O)[C@H](Cc2ccccc2)NC(=O)[C@H](CCCCN)NC(=O)[C@@H](Cc2c[nH]c3ccccc23)NC(=O)CSC[C@@H](C(=O)NCC(N)=O)NC(=O)[C@H](CCCCN)NC(=O)[C@H](Cc2ccc(O)cc2)NC(=O)[C@H](Cc2c[nH]c3ccccc23)NC(=O)[C@H](CCCCN)NC(=O)[C@H](CO)NC1=O [HiP-12, KFRISKWYK]

kon (HGF [1]): 1.9e+06 M⁻¹ s⁻¹ | koff (HGF [1]): 0.004 s⁻¹
Molecule: CC[C@H](C)[C@@H]1NC(=O)[C@H](CCCCN)NC(=O)[C@H](Cc2ccccc2)NC(=O)[C@H]([C@@H](C)CC)NC(=O)[C@@H](Cc2c[nH]c3ccccc23)NC(=O)CSC[C@@H](C(=O)NCC(N)=O)NC(=O)[C@H](CCCCN)NC(=O)[C@H](Cc2ccc(O)cc2)NC(=O)[C@H](Cc2c[nH]c3ccccc23)NC(=O)[C@H](CCCCN)NC(=O)[C@H](CO)NC1=O [HiP-13, IFKISKWYK]

Molecule: COc1cc2ncnc(Nc3ccc(F)c(Cl)c3)c2cc1OCCCN1CCOCC1 [gefitinib, reference compound]
growth of lung cancer cells (PC-9 cells): strongly inhibits growth of lung cancer cells

MET inhibitory activity (HGF [2]): had MET inhibitory activity
Molecule: KHKISKWKK ({CH2CO}-[dW]KHKISKWKKC; thioether N-11 (inferred)) [HiP-6, thioether cyclic peptide]

MET inhibitory activity (HGF [2]): had MET inhibitory activity
Molecule: TRKISKWYK ({CH2CO}-[dW]TRKISKWYKC; thioether N-11 (inferred)) [HiP-1, thioether cyclic peptide]

Molecule: biotinylated HGF: hHGF biotinylated using a succinimidyl biotin labeling kit
MET activation activity compared with non-labeled HGF (MET): activity equivalent to that of non-labeled HGF

Molecule: fluorescein HGF: hHGF labeled with fluorescein using a succinimidyl fluorescein labeling kit
MET activation activity compared with non-labeled HGF (MET): activity equivalent to that of non-labeled HGF

MET inhibitory activity (MET activation inhibition test, EHMES-1 cells) [3]: ≥ 100 nM
Molecule: {CH2CO}-[dW]NRGINKYWKC (thioether N-11 (inferred)) [cyclic peptide HiP-15]

MET inhibitory activity (MET activation inhibition test, EHMES-1 cells) [3]: ≥ 100 nM
B1: cyclic peptide HiP-9 (peptide)
peptide: Ac-[dW]CKVSKWSKC
modifications: thioether (positions not given here); also: thioether to Cys2 or Cys10, not given here

MET inhibitory activity (MET activation inhibition test, EHMES-1 cells) [3]: ≥ 100 nM
Molecule: {CH2CO}-[dW]QYKVSKVVYKC (thioether N-12 (inferred)) [cyclic peptide HiP-14]

MET inhibitory activity (MET activation inhibition test, EHMES-1 cells) [3]: ≥ 100 nM
Molecule: {CH2CO}-[dW]TRKISKWYKC (thioether N-11 (inferred)) [cyclic peptide HiP-1]

Kd [4]: 2.1 nM | MET inhibitory activity (MET activation inhibition test, EHMES-1 cells) [3]: ≥ 100 nM
B2: cyclic peptide HiP-13 (peptide)
peptide: {CH2CO}-[dW]IFKISKWYKC
modifications: thioether N-11 (inferred)
notes: C-terminal tail after Cys not known (drawing)

IC50 (read off the curve) (fluorescein-HGF [5]): ~1 nM
B3: HiP-8-PEG5 (peptide)
peptide: {CH2CO}-[dW]PLSKWWYSKRC[PEG5′]
modifications: thioether N-12; also: further groups not given here
notes: HiP-8 with a PEG5 tail; also called HiP-8 modified peptide

MET inhibitory activity (MET activation inhibition test, EHMES-1 cells) [3]: ≥ 100 nM
Molecule: {CH2CO}-[dW]KHKISKWKKC (thioether N-11 (inferred)) [cyclic peptide HiP-6]

Kd [4]: 0.4 nM | IC50 (read off the curve) (fluorescein-HGF [6]): ~1 nM | MET activation inhibition concentration (IC50), EHMES-1 cells stimulated with hHGF [3]: 8 nM | IC50 (fluorescein-HGF [7]): 0.9 nM
B4: cyclic peptide HiP-8 (peptide)
peptide: {CH2CO}-[dW]PLSKWWYSKRC
modifications: thioether N-12 (inferred)
notes: a C-terminal tail (X')r or amide after Cys is not known

Kd (tcHGF(Xa)): 2.5 nM
B5: HiP-8-PEG11-biotin (peptide)
peptide: {CH2CO}-[dW]PLSKWWYSKRC-{βAla-PEG11′-K(D-biotin)}
modifications: thioether N-12 (inferred)
notes: also called immobilized HiP-8-PEG11; HiP-8 (in the staining text)

Kd [4]: 12 nM | MET inhibitory activity (MET activation inhibition test, EHMES-1 cells) [3]: ≥ 100 nM
B6: cyclic peptide HiP-12 (peptide)
peptide: {CH2CO}-[dW]KFRISKWYKC
modifications: thioether N-11 (inferred)
notes: as for B2

IC50 (read off the curve) (fluorescein-HGF [6]): ~1 nM
Molecule: {CH2CO}-[dW]PLSKWWYSKRC[βAla][PEG11″] (thioether N-12 (inferred), also called HiP-8 modified peptide) [HiP-8-PEG11]

MET inhibitory activity (MET activation inhibition test, EHMES-1 cells) [3]: ≥ 100 nM
B7: cyclic peptide HiP-10 (peptide)
peptide: Ac-[dW]RYIKLCKISKWSRC
modifications: thioether (positions not given here); also: thioether ring-closing Cys not given here (Cys7 or Cys15)

MET inhibitory activity (MET activation inhibition test, EHMES-1 cells) [3]: ≥ 100 nM
Molecule: {CH2CO}-[dW]NKKVSKWYKRGC (thioether N-13 (inferred)) [cyclic peptide HiP-16]
